Measurements published in the supplement of paper PMC10724198.
± gives the standard deviation of the averaged measurements.

Tested on: Saccharomyces cerevisiae
Assay: protein stability index of tFT-peptide fusion (C-terminal peptide) (PSI (0-1 scale)); higher = more stable (slower turnover)
Conditions: temperature: 30 C
Protocol: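 MPS profiling in S. cerevisiae of the yeast C-terminome library: the last 12 aa of each annotated ORF are fused to the C-terminus of a sfGFP-mCherry timer, after a GGGS linker. Cells are FACS-sorted into 8 mCherry/sfGFP bins and deep-sequenced. PSI runs from 0 (unstable) to 1 (stable); wild type and das1Δ backgrounds, two technical replicates each.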

[1] = genetic background: das1 deletion

Sequence | protein stability index [1] | protein stability index (genetic background: wild type)
YHLFYMKLQKKI [SPE2 C-terminal 12 aa] | 0.6977 ± 0.0069 | 0.187 ± 0.013
ATYLNKSDNQVQ [YLR446W C-terminal 12 aa] | 0.675 ± 0.052 | 0.656 ± 0.024
IVPSQGKKVKFD [NOP13 C-terminal 12 aa] | 0.679 ± 0.0068 | 0.676 ± 0.011
IDEMYRGGISMN [AIM32 C-terminal 12 aa] | 0.693 ± 0.013 | 0.69 ± 0.024
FIYKRNKKFILN [YPQ1 C-terminal 12 aa] | 0.725 ± 0.014 | 0.21 ± 0.019
GNNGNNNNTTNL [PET123 C-terminal 12 aa] | 0.672 ± 0.008 | 0.669 ± 0.0096
RRAAIHPYFQES [CDC28 C-terminal 12 aa] | 0.729 ± 0.013 | 0.687 ± 0.015
EVDELPEGYDRS [TAH1 C-terminal 12 aa] | 0.6846 ± 0.0037 | 0.6764 ± 0.002
MYSSKDNPASPK [TAF1 C-terminal 12 aa] | 0.693 ± 0.021 | 0.674 ± 0.017
NTFVLNMSRFII [YDL068W C-terminal 12 aa] | 0.6739 ± 0.003 | 0.365 ± 0.079
APNSNSSSGSVS [YFL013W-A C-terminal 12 aa] | 0.673 ± 0.026 | 0.66 ± 0.034
LNRKEESDSFVA [CHS3 C-terminal 12 aa] | 0.6769 ± 0.0027 | 0.679 ± 0.017
LLYLYDNDHTST [GPI19 C-terminal 12 aa] | 0.72 ± 0.058 | 0.6907 ± 0.0034
LNAFQHPIVEFQ [YEL028W C-terminal 12 aa] | 0.755 ± 0.013 | 0.69 ± 0.022
LLLSIFSILIVL [YPS7 C-terminal 12 aa] | 0.321 ± 0.0053 | 0.2802 ± 0.0025
PAAIKQAIASNV [TRX2 C-terminal 12 aa] | 0.659 ± 0.0072 | 0.657 ± 0.0098
MKKPRKSKKAAN [KRE33 C-terminal 12 aa] | 0.716 ± 0.018 | 0.714 ± 0.039
GHNWLIFTRRRL [CBT1 C-terminal 12 aa] | 0.718 ± 0.012 | 0.707 ± 0.0083
SSTGTPEHDQDT [EUC1 C-terminal 12 aa] | 0.69 ± 0.0083 | 0.682 ± 0.025
LVFALLTCFEDG [YDR209C C-terminal 12 aa] | 0.481 ± 0.0089 | 0.505 ± 0.014
AYFALREKKFLL [YIL012W C-terminal 12 aa] | 0.694 ± 0.019 | 0.641 ± 0.018

Sequence | protein stability index [1] | protein stability index (genetic background: wild type)
FSSEQGNPKEEK [FMP10 C-terminal 12 aa] | 0.702 ± 0.034 | 0.733 ± 0.03
RIAAGDGDDDDE [QCR9 C-terminal 12 aa] | 0.7068 ± 0.0027 | 0.674 ± 0.041
EAQSARNEKPLK [COS8 C-terminal 12 aa] | 0.685 ± 0.021 | 0.691 ± 0.029
FPFELRREQTEG [PET130 C-terminal 12 aa] | 0.6976 ± 0.0057 | 0.755 ± 0.061
FSIVALEVWRVG [OXR1 C-terminal 12 aa] | 0.552 ± 0.013 | 0.567 ± 0.022
MIDELDYNINFA [UGA3 C-terminal 12 aa] | 0.7 ± 0.013 | 0.791 ± 0.076
ITSQDILASTDY [YHL009W-B C-terminal 12 aa] | 0.688 ± 0.015 | 0.711 ± 0.027
DTVVRLIDNIVI [PAN6 C-terminal 12 aa] | 0.6896 ± 0.0041 | 0.702 ± 0.07
FDSEHFYSPVQT [PRP3 C-terminal 12 aa] | 0.7065 ± 0.0023 | 0.71 ± 0.024
KIITLDLSNYAE [SMC1 C-terminal 12 aa] | 0.709 ± 0.057 | 0.672 ± 0.049
SFDVLAKVPNAA [RPA190 C-terminal 12 aa] | 0.692 ± 0.011 | 0.655 ± 0.011
TEDQFKENGVKK [ICL1 C-terminal 12 aa] | 0.703 ± 0.033 | 0.716 ± 0.065
KGVVTLEEILKA [COQ11 C-terminal 12 aa] | 0.712 ± 0.012 | 0.712 ± 0.028
GPCCMYIGCGCG [YBR056C-B C-terminal 12 aa] | 0.6658 ± 0.0036 | 0.686 ± 0.032
LVHIKMENGIVS [IZH2 C-terminal 12 aa] | 0.65319 ± 0.00027 | 0.693 ± 0.019
LDLVARTATLSN [NUP84 C-terminal 12 aa] | 0.695 ± 0.014 | 0.713 ± 0.026
MGSSRRTSLDFF [YBR071W C-terminal 12 aa] | 0.7242 ± 0.0015 | 0.693 ± 0.025
HFCYIGRITTHT [YDL114W-A C-terminal 12 aa] | 0.681 ± 0.017 | 0.689 ± 0.018
SFNEVVKEVQAL [NHP2 C-terminal 12 aa] | 0.687 ± 0.017 | 0.692 ± 0.019
AQPSQSEKEKTK [LNP1 C-terminal 12 aa] | 0.679 ± 0.015 | 0.678 ± 0.04
